Data published in patent US20220073598A1 (KYMAB, published 2022).
Numbering of substitutions follows the chain as printed. Blank lines part the entries; values can stand above or below the binder they belong to.

Assays:
[1] = molecular target: T1, recombinant human BMP6 (Peprotech 120-06) (human, UniProt P22004 397-513); assay: HTRF competition: unlabelled antibody titrated (11 points, top 3 µM) against labelled CL-58838 (10 nM) for binding to labelled human BMP6 (32 nM)
T1 construct: Biotinylated and immobilised for SPR; also called hBMP6; Bone Morphogenetic Protein 6
T1 sequence: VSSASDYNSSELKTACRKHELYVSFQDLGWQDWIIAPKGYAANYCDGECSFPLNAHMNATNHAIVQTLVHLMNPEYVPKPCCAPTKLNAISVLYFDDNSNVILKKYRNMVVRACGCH

[2] = molecular target: T1, recombinant human BMP6 (Peprotech …); assay: Western blot after non-reducing SDS-PAGE
Experimental: (§1) 2 μg/lane purified human BMP6 (Peprotech) separated by SDS-PAGE and stained with Coomassie blue (A) under reducing (R) and non-reducing (NR) conditions and Western blots from such gels blotted onto membranes and then probed with purified human anti-BMP6 antibodies as labelled.
(§2) Since BMP6 is a disulphide linked dimer the reducing condition should create monomers on the gel instead of dimers on the non-reduced gel.

[3] = molecular target: T2, human BMP6 (Peprotech), reduced monomer on SDS-PAGE (human, UniProt P22004 397-513); assay: Western blot after reducing SDS-PAGE
T2 construct: also called reduced BMP6 monomers; 18 kDa monomer
T2 sequence: T1 sequence
Experimental: as §1, §2

binding result [1]: binds
B1: CL-58756 (antibody, human IgG4 S228P, kappa, V domains shown)
VH: QVQLVESGGGLVKPGGSLRLSCAASGFTFSDYYMSWIRQAPGKGLEWVSYISISGSTIYYADSVKGRFTISRDNAKNSLYLQMNSLRAEDTAVYYCARRSSGWYDYWGQGTLVTVSS
VL: EIVLTQSPGTLSLSPGERATLSCRASQSVSSNYLAWYQQKPGQAPRLLIYGASIRATGIPDRFSGSGSGTDFTLTISRLEPEDFAVYCCHQYGSSPPTFGQGTKVEIKR

binding result [1]: binds
B2: CL-58722 (antibody, human IgG4 S228P, kappa, V domains shown)
VH: B1 VH with Y80F
VL: B1 VL with C88S

binding result [1]: binds
B3: CL-58713 (antibody, human IgG4 S228P, kappa, V domains shown)
VH: B1 VH with S56I, K76R
VL: B1 VL with S31Y

binding result [2]: binds
binding result [3]: binds
B4: Antibody B (antibody, human IgG1, lambda, V domains shown)
VH: QVQLVESGGGLVKPGGSLRLSCAASGFTFSSYVVHWVRQAPGKGLEWVGRIRLETHGYAAEYAASVKGRFTISRDDSKNTLYLQMNSLKTEDTAVYYCARVERSKSGFDNWGQGTLVTVSS
VL: QSVLTQPPSVSGAPGQRVTISCTGSSSNIGAGYSVHWYQQLPGTAPKLLIYGQSERPSGVPDRFSGSKSGTSASLAITGLQAEDEADYYCQSWDSSQTLVVFGGGTKLTVLG
notes: also called anti-BMP6 Antibody B
